Laboratory results taken from US20160159910A1 (Genentech, published 2016).

Experiments:
[1] = target: T1, B7-H4 (IgV; G28-F150 including spacer S151-V157)-irrelevant (Ig-C) chimeric membrane protein (construct-88) (human, UniProt Q7Z7D3 28-157); assay: FACS on 293 cells expressing the Ig-chimera with the B7-H4 Ig-V domain
T1 construct: also called B7-H4 (Ig-V):MolX (Ig-C, TM, CD); Ig-chimera expressing the B7-H4 Ig-V domain; not shown: Ig-C, transmembrane and cytoplasmic parts of the unnamed irrelevant protein (MolX) that display the domain on the cell; N-terminal Herpes-gD tag
T1 sequence: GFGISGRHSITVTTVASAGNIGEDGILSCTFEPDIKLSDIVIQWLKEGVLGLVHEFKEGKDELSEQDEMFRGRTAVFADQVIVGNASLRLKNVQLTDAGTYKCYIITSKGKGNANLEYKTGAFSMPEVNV
Excerpt: Briefly, 293 cells were transiently transfected with constructs 88 & 88B using polyfect.

human B7-H4 [2] = target: T2, human B7-H4 (human, UniProt Q7Z7D3 29-282); assay: Scatchard analysis, radioligand cell binding on MX-1 cells (endogenous human B7-H4)
T2 construct: On stably transfected 293 cells (recombinant) or on MX-1 / SKBR3 tumor cells (endogenous); the cell is named under assay; also called huB7-H4; hB7-H4
T2 sequence: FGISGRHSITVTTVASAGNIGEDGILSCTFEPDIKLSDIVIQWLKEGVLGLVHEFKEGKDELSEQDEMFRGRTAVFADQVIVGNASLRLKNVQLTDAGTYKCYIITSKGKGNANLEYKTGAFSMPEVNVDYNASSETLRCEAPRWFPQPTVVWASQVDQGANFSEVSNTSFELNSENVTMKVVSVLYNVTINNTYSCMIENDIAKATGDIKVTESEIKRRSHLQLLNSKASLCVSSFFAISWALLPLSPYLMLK
Procedure: Competition assay mixtures of 50 μL volume containing a fixed concentration of [I¹²⁵] labeled antibody and decreasing concentrations of serially diluted, unlabeled antibody were placed into 96-well plates. […] Cells were detached from the flask using Sigma Cell Dissociation Solution and were washed with binding buffer, which consisted of Dulbecco's Modified Eagle Medium (DMEM) with 1% bovine serum albumin (BSA), 300 mM human IgG and 0.1% sodium azide. The washed cells were added to the 96 well plates at a density of 100,000 cells in 0.2 mL of binding buffer. The final concentration of the [I¹²⁵] labeled antibody in each well was ˜250 pM. The final concentration of the unlabeled antibody in the competition assay ranged from 1000 nM through ten 2-fold dilution steps to a 0 nM buffer-only assay. Competition assays were carried out in triplicate. Competition assays were incubated for 2 hours at room temperature. […] The filters were counted on a Wallac Wizard 1470 gamma counter (PerkinElmer Life and Analytical Sciences Inc.; Wellesley, Mass.). The binding data was evaluated using NewLigand software (Genentech), which uses the fitting algorithm of Munson and Robard to determine the binding affinity of the antibody (Munson and Robard 1980).

human B7-H4 [3] = target: T2, human B7-H4; assay: Scatchard analysis, radioligand cell binding on 293 cells expressing recombinant B7-H4
Procedure: (§1) Competition assay mixtures of 50 μL volume containing a fixed concentration of [I¹²⁵] labeled antibody and decreasing concentrations of serially diluted, unlabeled antibody were placed into 96-well plates. […] Cells were detached from the flask using Sigma Cell Dissociation Solution and were washed with binding buffer, which consisted of Dulbecco's Modified Eagle Medium (DMEM) with 1% bovine serum albumin (BSA), […] and 0.1% sodium azide. The washed cells were added to the 96 well plates at a density of 100,000 cells in 0.2 mL of binding buffer. The final concentration of the [I¹²⁵] labeled antibody in each well was ˜250 pM. The final concentration of the unlabeled antibody in the competition assay ranged from 1000 nM through ten 2-fold dilution steps to a 0 nM buffer-only assay. Competition assays were carried out in triplicate. Competition assays were incubated for 2 hours at room temperature. After the 2-hour incubation, the competition assays were transferred to a Millipore Multiscreen filter plate (Billerica, Mass.) and washed 4 times with binding buffer to separate the free from bound [I¹²⁵] labeled antibody. The filters were counted on a Wallac Wizard 1470 gamma counter (PerkinElmer Life and Analytical Sciences Inc.; Wellesley, Mass.). The binding data was evaluated using NewLigand software (Genentech), which uses the fitting algorithm of Munson and Robard to determine the binding affinity of the antibody (Munson and Robard 1980).

cynomolgus monkey B7-H4 = target: T3, cynomolgus monkey B7-H4 (cynomolgus monkey, UniProt Q7Z7D3 29-282 (human entry)); assay: as above
T3 construct: On stably transfected 293 cells; also called cyno B7-H4; recombinant cynomolgus monkey B7-H4
T3 chain: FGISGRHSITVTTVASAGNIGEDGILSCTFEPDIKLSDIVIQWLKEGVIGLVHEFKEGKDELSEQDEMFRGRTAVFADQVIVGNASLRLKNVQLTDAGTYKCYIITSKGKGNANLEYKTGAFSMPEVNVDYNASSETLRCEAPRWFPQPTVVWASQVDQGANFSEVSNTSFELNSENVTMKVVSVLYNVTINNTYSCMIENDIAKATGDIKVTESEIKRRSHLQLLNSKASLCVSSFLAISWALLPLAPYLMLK
Procedure: as §1

mouse B7-H4 = target: T4, mouse B7-H4 (mouse, UniProt Q7TSP5 29-283); assay: as above
T4 construct: On stably transfected 293 cells; also called muB7-H4; recombinant mouse B7-H4
T4 sequence: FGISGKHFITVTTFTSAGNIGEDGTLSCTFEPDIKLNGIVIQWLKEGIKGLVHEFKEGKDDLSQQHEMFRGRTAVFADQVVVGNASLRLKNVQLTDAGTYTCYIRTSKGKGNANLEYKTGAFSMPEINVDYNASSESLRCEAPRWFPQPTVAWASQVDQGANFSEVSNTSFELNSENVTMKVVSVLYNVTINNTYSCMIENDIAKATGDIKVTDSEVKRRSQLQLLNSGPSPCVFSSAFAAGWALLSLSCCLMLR
Procedure: as §1

rat B7-H4 = target: T5, rat B7-H4 (rat, UniProt Q501W4 29-282); assay: as above
T5 construct: On stably transfected 293 cells; also called recombinant rat B7-H4
T5 sequence: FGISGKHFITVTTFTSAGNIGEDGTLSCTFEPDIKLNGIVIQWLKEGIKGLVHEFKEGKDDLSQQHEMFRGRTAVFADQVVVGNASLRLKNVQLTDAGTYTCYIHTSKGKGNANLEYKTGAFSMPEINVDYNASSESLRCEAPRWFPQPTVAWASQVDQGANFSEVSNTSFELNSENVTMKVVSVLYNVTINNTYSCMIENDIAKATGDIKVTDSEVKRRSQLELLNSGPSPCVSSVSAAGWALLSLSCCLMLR
Procedure: as §1

B1: hu1D11.v1.9 varD (antibody)
heavy: not shown
light: DIQMTQSPSSLSASVGDRVTITCKASQGFNKYVAWYQQKPGKAPKLLIYYTSTLQPGVPSRFSGSGSGRDYTLTISSLQPEDFATYYCLQYGDLLYAFGQGTKVEIKRTVAAPSVFIFPPSDEQLKSGTASVVCLLNNFYPREAKVQWKVDNALQSGNSQESVTEQDSKDSTYSLSSTLTLSKADYEKHKVYACEVTHQGLSSPVTKSFNRGEC
notes: IgG1 / kappa; also called h1D11v1.9_VarD; h1D11v1.9varD
- fold binding compared to mock transfected 293 cells [1]: ~44 fold
- Kd (human B7-H4 [2]): 7.4 nM
- Kd (human B7-H4 [3]): 2.9 nM
- Kd (cynomolgus monkey B7-H4): 3.7 nM
- Kd (mouse B7-H4): 5 nM
- Kd (rat B7-H4): 2.7 nM
